Laboratory results from paper PMC2967539.

Biological target: human dipeptidyl peptidase IV (human) (UniProt P27487)
UniProt P27487, sequence (P27487 whole entry): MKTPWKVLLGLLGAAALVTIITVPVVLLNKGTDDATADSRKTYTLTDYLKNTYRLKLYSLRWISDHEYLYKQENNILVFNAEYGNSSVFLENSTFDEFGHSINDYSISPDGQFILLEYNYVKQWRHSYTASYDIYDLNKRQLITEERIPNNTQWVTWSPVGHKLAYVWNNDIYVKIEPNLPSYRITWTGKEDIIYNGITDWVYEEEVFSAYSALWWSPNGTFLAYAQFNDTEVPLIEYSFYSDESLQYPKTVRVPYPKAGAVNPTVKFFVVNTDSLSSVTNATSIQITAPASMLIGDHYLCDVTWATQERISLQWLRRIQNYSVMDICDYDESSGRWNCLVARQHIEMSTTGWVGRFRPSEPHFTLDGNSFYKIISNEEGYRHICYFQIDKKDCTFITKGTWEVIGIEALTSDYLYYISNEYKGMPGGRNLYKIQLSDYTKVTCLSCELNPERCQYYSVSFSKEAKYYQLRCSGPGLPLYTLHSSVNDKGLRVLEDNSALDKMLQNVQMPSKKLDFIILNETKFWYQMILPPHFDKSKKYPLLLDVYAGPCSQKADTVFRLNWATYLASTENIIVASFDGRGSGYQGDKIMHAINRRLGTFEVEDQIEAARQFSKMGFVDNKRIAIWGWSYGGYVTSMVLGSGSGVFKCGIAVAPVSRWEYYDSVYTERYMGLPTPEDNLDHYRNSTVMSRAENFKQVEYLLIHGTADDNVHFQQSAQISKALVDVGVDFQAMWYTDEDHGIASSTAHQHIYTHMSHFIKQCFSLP

“Tat-1-86 protein (Immuno-Diagnostics) (from UniProt P04610 1-86) (natural protein)” showed a cleavage of GLP1 (31.25 uM) by purified DPPIV (16 nM) in the presence of 1 uM Tat-1-86, MALDI-TOF mass spectrometry, after 5 min at 37 °C (all GLP1 cleaved within 5 min without Tat) of 40%.
